The record followed here is patent US20090099029.

Sequences and labels used below:
T1: Bovine, dephosphorylated, Myelin Basic Protein (MBP), P02687
T1 chain: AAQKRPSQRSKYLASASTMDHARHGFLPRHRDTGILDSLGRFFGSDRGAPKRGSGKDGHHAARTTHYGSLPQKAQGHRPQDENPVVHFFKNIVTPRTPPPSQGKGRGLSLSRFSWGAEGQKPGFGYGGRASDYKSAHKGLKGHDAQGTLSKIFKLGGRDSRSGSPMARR

B1: PRKCZ (protein)
chain: MPSRTGPKMEGSGGRVRLKAHYGGDIFITSVDAATTFEELCEEVRDMCRLHQQHPLTLKWVDSEGDPCTVSSQMELEEAFRLARQCRDEGLIIHVFPSTPEQPGLPCPGEDKSIYRRGARRWRKLYRANGHLFQAKRFNRRAYCGQCSERIWGLARQGYRCINCKLLVHKRCHGLVPLTCRKHMDSVMPSQEPPVDDKNEDADLPSEETDGIAYISSSRKHDSIKDDSEDLKPVIDGMDGIKISQGLGLQDFDLIRVIGRGSYAKVLLVRLKKNDQIYAMKVVKKELVHDDEDIDWVQTEKHVFEQASSNPFLVGLHSCFQTTSRLFLVIEYVNGGDLMFHMQRQRKLPEEHARFYAAEICIALNFLHERGIIYRDLKLDNVLLDADGHIKLTDYGMCKEGLGPGDTTSTFCGTPNYIAPEILRGEEYGFSVDWWALGVLMFEMMAGRSPFDIITDNPDMNTEDYLFQVILEKPIRIPRFLSVKASHVLKGFLNKDPKERLGCRPQTGFSDIKSHAFFRSIDWDLLEKKQALPPFQPQITDDYGLDNFDTQFTSEPVQLTPDDEDAIKRIDQSEFEGFEYINPLLLSTEESV
B2: PRKD2(PKD2) (protein)
chain: MATAPSYPAGLPGSPGPGSPPPPGGLELQSPPPLLPQIPAPGSGVSFHIQIGLTREFVLLPAASELAHVKQLACSIVDQKFPECGFYGLYDKILLFKHDPTSANLLQLVRSSGDIQEGDLVEVVLSASATFEDFQIRPHALTVHSYRAPAFCDHCGEMLFGLVRQGLKCDGCGLNYHKRCAFSIPNNCSGARKRRLSSTSLASGHSVRLGTSESLPCTAEELSRSTTELLPRRPPSSSSSSSASSYTGRPIELDKMLLSKVKVPHTFLIHSYTRPTVCQACKKLLKGLFRQGLQCKDCKFNCHKRCATRVPNDCLGEALINGDVPMEEATDFSEADKSALMDESEDSGVIPGSHSENALHASEEEEGEGGKAQSSLGYIPLMRVVQSVRHTTRKSSTTLREGWVVHYSNKDTLRKRHYWRLDCKCITLFQNNTTNRYYKEIPLSEILTVESAQNFSLVPPGTNPHCFEIVTANATYFVGEMPGGTPGGPSGQGAEAARGWETAIRQALMPVILQDAPSAPGHAPHRQASLSISVSNSQIQENVDIATVYQIFPDEVLGSGQFGVVYGGKHRKTGRDVAVKVIDKLRFPTKQESQLRNEVAILQSLRHPGIVNLECMFETPEKVFVVMEKLHGDMLEMILSSEKGRLPERLTKFLITQILVALRHLHFKNIVHCDLKPENVLLASADPFPQVKLCDFGFARIIGEKSFRRSVVGTPAYLAPEVLLNQGYNRSLDMWSVGVIMYVSLSGTFPFNEDEDINDQIQNAAFMYPASPWSHISAGAIDLINNLLQVKMRKRYSVDKSLSHPWLQEYQTWLDLRELEGKMGERYITHESDDARWEQFAAEHPLPGSGLPTDRDLGGACPPQDHDMQGLAERISVL
B3: EPHB3 (protein)
chain: CLRKQRHGSDSEYTEKLQQYIAPGMKVYIDPFTYEDPNEAVREFAKEIDVSCVKIEEVIGAGEFGEVCRGRLKQPGRREVFVAIKTLKVGYTERQRRDFLSEASIMGQFDHPNIIRLEGVVTKSRPVMILTEFMENCALDSFLRLNDGQFTVIQLVGMLRGIAAGMKYLSEMNYVHRDLAARNILVNSNLVCKVSDFGLSRFLEDDPSDPTYTSSLGGKIPIRWTAPEAIAYRKFTSASDVWSYGIVMWEVMSYGERPYWDMSNQDVINAVEQDYRLPPPMDCPTALHQLMLDCWVRDRNLRPKFSQIVNTLDKLIRNAASLKVIASAQSGMSQPLLDRTVPDYTTFTTVGDWLDAIKMGRYKESFVSAGFASFDLVAQMTAEDLLRIGVTLAGHQKKILSSIQDMRLQMNQTLPVQV
B4: PRKCQ (protein)
chain: MSPFLRIGLSNFDCGSCQSCQGEAVNPYCAVLVKEYVESENGQMYIQKKPTMYPPWDSTFDAHINKGRVMQIIVKGKNVDLISETTVELYSLAERCRKNNGKTEIWLELKPQGRMLMNARYFLEMSDTKDMNEFETEGFFALHQRRGAIKQAKVHHVKCHEFTATFFPQPTFCSVCHEFVWGLNKQGYQCRQCNAAIHKKCIDKVIAKCTGSAINSRETMFHKERFKIDMPHRFKVYNYKSPTFCEHCGTLLWGLARQGLKCDACGMNVHHRCQTKVANLCGINQKLMAEALAMIESTQQARCLRDTEQIFREGPVEIGLPCSIKNEARPPCLPTPGKREPQGISWESPLDEVDKMCHLPEPELNKERPSLQIKLKIEDFILHKMLGKGSFGKVFLAEFKKTNQFFAIKALKKDVVLMDDDVECTMVEKRVLSLAWEHPFLTHMFCTFQTKENLFFVMEYLNGGDLMYHIQSCHKFDLSRATFYAAEIILGLQFLHSKGIVYRDLKLDNILLDKDGHIKIADFGMCKENMLGDAKTNTFCGTPDYIAPEILLGQKYNHSVDWWSFGVLLYEMLIGQSPFHGQDEEELFHSIRMDNPFYPRWLEKEAKDLLVKLFVREPEKRLGVRGDIRQHPLFREINWEELERKEIDPPFRPKVKSPFDCSNFDKEFLNEKPRLSFADRALINSMDQNMFRNFSFMNPGMERLIS
B5: PRKCI (protein)
chain: MPTQRDSSTMSHTVAGGGSGDHSHQVRVKAYYRGDIMITHFEPSISFEGLCNEVRDMCSFDNEQLFTMKWIDEEGDPCTVSSQLELEEAFRLYELNKDSELLIHVFPCVPERPGMPCPGEDKSIYRRGARRWRKLYCANGHTFQAKRFNRRAHCAICTDRIWGLGRQGYKCINCKLLVHKKCHKLVTIECGRHSLPQEPVMPMDQSSMHSDHAQTVIPYNPSSHESLDQVGEEKEAMNTRESGKASSSLGLQDFDLLRVIGRGSYAKVLLVRLKKTDRIYAMKVVKKELVNDDEDIDWVQTEKHVFEQASNHPFLVGLHSCFQTESRLFFVIEYVNGGDLMFHMQRQRKLPEEHARFYSAEISLALNYLHERGIIYRDLKLDNVLLDSEGHIKLTDYGMCKEGLRPGDTTSTFCGTPNYIAPEILRGEDYGFSVDWWALGVLMFEMMAGRSPFDIVGSSDNPDQNTEDYLFQVILEKQIRIPRSLSVKAASVLKSFLNKDPKERLGCHPQTGFADIQGHPFFRNVDWDMMEQKQVVPPFKPNISGEFGLDNFDSQFTNEPVQLTPDDDDIVRKIDQSEFEGFEYINPLLMSAEECV
B6: PRKD1(PKD) (protein)
chain: MSAPPVLRPPSPLLPVAAAAAAAAAALVPGSGPGPAPFLAPVAAPVGGISFHLQIGLSREPVLLLQDSSGDYSLAHVREMACSIVDQKFPECGFYGMYDKILLFRHDPTSENILQLVKAASDIQEGDLIEVVLSASATFEDFQIRPHALFVHSYRAPAFCDHCGEMLWGLVRQGLKCEGCGLNYHKRCAFKIPNNCSGVRRRRLSNVSLTGVSTIRTSSAELSTSAPDEPLLQKSPSESFIGREKRSNSQSYIGRPIHLDKILMSKVKVPHTFVIHSYTRPTVCQYCKKLLKGLFRQGLQCKDCRFNCHKRCAPKVPNNCLGEVTINGDLLSPGAESDVVMEEGSDDNDSERNSGLMDDMEEAMVQDAEMAMAECQNDSGEMQDPDPDHEDANRTISPSTSNNIPLMRVVQSVKHTKRKSSTVMKEGWMVHYTSKDTLRKRHYWRLDSKCITLFQNDTGSRYYKEIPLSEILSLEPVKTSALIPNGANPHCFEITTANVVYYVGENVVNPSSPSPNNSVLTSGVGADVARMWEIAIQHALMPVIPKGSSVGTGTNLHRDISVSISVSNCQIQENVDISTVYQIFPDEVLGSGQFGIVYGGKHRKTGRDVAIKIIDKLRFPTKQESQLRNEVAILQNLHHPGVVNLECMFETPERVFVVMEKLHGDMLEMILSSEKGRLPEHITKFLITQILVALRHLHFKNIVHCDLKPENVLLASADPFPQVKLCDFGFARIIGEKSFRRSVVGTPAYLAPEVLRNKGYNRSLDMWSVGVIIYVSLSGTFPFNEDEDIHDQIQNAAFMYPPNPWKEISHEAIDLINNLLQVKMRKRYSVDKTLSHPWLQDYQTWLDLRELECKIGERYITHESDDLRWEKYAGEQGLQYPTHLINPSASHSDTPETEETEMKALGERVSIL

The data set addresses T1, Bovine, dephosphorylated, Myelin Basic ….
Regarding B1, the “MBP Kinase Activity” value is listed as “Strong”.

Consider B2, for which the “MBP Kinase Activity” value is listed as “Strong”.

Turning to B3, the “MBP Kinase Activity” value is reported as “Strong”.

In the case of B4, the “MBP Kinase Activity” value is “Strong”.

For B5, the “MBP Kinase Activity” value was “Strong”.

Take B6: the “MBP Kinase Activity” value is on record as “Weak”.
